Data from US20050060764A1, “Mouse model for bone metabolism” (priority 2003, published 2005).
Strand notation (5' to 3'): a small letter for the sugar, then the base; units joined by * are phosphorothioate-linked, units joined directly phosphodiester-linked; [ ] holds rarer units or linkages, { } end groups; capitals alone tell only the bases. e = 2'-O-(2-methoxyethyl) (MOE); [5mC] = 5-methylcytosine; d = 2'-deoxy (DNA)

Assays:
[1] = test system: RANK mRNA; test: RANK mRNA expression in mouse proximal tibia after antisense oligonucleotide treatment and PTH infusion: time course (Table 13); assay type: in vivo; settings: for RANK mRNA % inhibition (normalized to PTH) Proximal Tibia: then 24 h PTH
Description: In accordance with the present invention, ISIS 181071 was administered to mice for different time periods to evaluate its ability to inhibit RANK expression and PTH-induced serum calcium concentration increase as a function of oligonucleotide treatment time.
Female Swiss-Webster mice (5-8 wks old) were fed a low-calcium diet and received daily subcutaneous injections of 30 mg/kg of ISIS 181071 (SEQ ID NO: 356) for 2, 3, 5, 7, 10, 14, or 21 days. At the end of the oligonucleotide treatment period, mice were infused with PTH by subcutaneously implanted mini-pumps at a dose of 1 ug/100 g/6 hr. A group of control mice were dosed with either saline, PTH alone (1 ug/100 g/6 hr) or calcitonin (400 ug) plus PTH (1 ug/100 g/6 hr). Following 24 hours of PTH infusion (total PTH delivery of 4ug/100 g), the mice were sacrificed and measurements were made of serum calcium with the Sigma Diagnostics Calcium Kit (Sigma-Aldrich) and RANK mRNA expression in the proximal tibia (as described in other examples herein). Percent RANK mRNA inhibition is normalized to PTH alone treatment.

[2] = test system: RANKL mRNA; test: RANKL mRNA expression in primary mouse osteoblast cells after PTH treatment: time course (Table 7); assay type: cell-based; settings: 10 nM PTH; for RANKL mRNA % control: primary osteoblast cells
Description: Primary mouse osteoblasts were prepared from calvaria of neonatal mice purchased from Charles River Laboratories. […] Cells were not passaged. Cells were seeded onto 6-well plates (Falcon-Primaria #353846) at a density of 50,000 cells/well for use in antisense oligonucleotide transfection.
In a further embodiment of this invention, the effect of PTH treatment on the expression of RANKL was determined in primary osteoblast cells isolated from mice skull caps. Primary osteoblastic cells were treated for 24 hours with either saline or the transfection reagent FuGENE 6 (Roche Applied Science, Indianapolis, Ind.). […] The RNA was then harvested and the expression levels of RANKL mRNA were measured by the methods described herein. The data are expressed as percent increase over untreated control cells.

[3] = test system: RANKL mRNA; test: Short-term bone resorption model: RANKL mRNA expression in proximal tibia after PTH infusion (Table 6); assay type: in vivo, mouse; settings: mice infused with PTH 1 ug/100 g/6 hr
Description: Probes and primers to mouse RANKL were designed to hybridize to a mouse RANKL sequence, using published sequence information (GenBank accession number AF013170.1, incorporated herein as SEQ ID NO:ll). For mouse RANKL the PCR primers were: • forward primer: […] (SEQ ID NO:12) • reverse primer: […] (SEQ ID NO: 13) and • the PCR probe was: FAM-[…]-TAMRA (SEQ ID NO: 14) where FAM is the fluorescent reporter dye and TAMRA is the quencher dye. For mouse GAPDH the PCR primers were: • forward primer: […](SEQ ID NO:15) • reverse primer: […](SEQ ID NO:16) and the • PCR probe was: 5′ JOE-[…]-TAMRA 3′ (SEQ ID NO: 17) where JOE is the fluorescent reporter dye and TAMRA is the quencher dye.
Parathyroidectomized rats are a well-established, short-term model of bone resorption and are useful in the investigation of antiresorptive agents. However, it is difficult to surgically remove only the parathyroid gland of rodents, and the inadvertent removal of the adjacent thyroid gland often has effects on thyroid hormone levels that introduce into the experiment an undesirable level of variability. Continuous infusion of parathyroid hormone (PTH) into intact, young (6-9 weeks old) mice reproduces the short-term bone resorption activity seen in parathyroidectomized rodents and is thus a useful, non-invasive model for the study of antiresorptive agents. The PTH infusion activates bone osteoclasts and causes them to degrade bone matrix, with a resulting rise in serum calcium. In accordance with the present invention, a short-term mouse model of bone resorption was developed and used to evaluate the effects of PTH infusion on serum calcium concentration and RANKL mRNA levels.
Female, Swiss-Webster mice (5-8 weeks old) were placed on a low calcium diet and implanted with mini-pumps delivering PTH continuously. The pumps were calibrated to deliver 1 ug PTH per 100 g bodyweight per 6 hour time period (1 ug/100 g/6 hr). […] The data are expressed as percent increase relative to no PTH treatment.

[4] = Serum calcium concentration after PTH infusion in mice: specificity and dose response of RANK antisense oligonucleotide (Table 15); assay type: in vivo, mouse; settings: control mice, no oligonucleotide; PTH 1 ug/100 g/6 hr 24 h, calcitonin 400 ng
Description: In accordance with the present invention, the specificity of RANK inhibition by a RANK antisense oligonucleotide was compared to that of an 8-base pair mismatch oligonucleotide.
ISIS 181080 ([…], SEQ ID NO: 357) is an antisense oligonucleotide targeted to mouse RANK. ISIS 208565 ([…], SEQ ID NO: 358) is an 8-base pair mismatch oligonucleotide. […] All cytidine residues are 5-methylcytidines.
Female Swiss-Webster mice (5-8 wks old) fed a low-calcium diet were treated for two weeks with either ISIS 181080 or ISIS 208565. The dose of oligonucleotide was either 40 mg/kg, 30 mg/kg, 20 mg/kg, or 10 mg/kg. After the 2-week treatment with oligonucleotides, the mice were infused with PTH by subcutaneously implanted mini-pumps at a dose of 4 ug/100 g over 24 hours. A group of control mice were dosed with either saline, PTH alone (1 ug/100 g/6 hr) or calcitonin (400 ng) plus PTH (1 ug/100 g/6 hr). After 24 hours of PTH infusion (total PTH delivery of 4 ug/100 g), the mice were sacrificed and measurements were made of serum calcium with the Sigma Diagnostics Calcium Kit (Sigma-Aldrich) and RANK mRNA expression in proximal tibia (as described in other examples herein). The results shown in Table 15 are the average from four mice per group. Percent inhibition of RANK mRNA is normalized to PTH treatment alone. […] The data also illustrate that these effects are occurring due to an antisense mechanism.

Question: What does the source list for “TCCTCGAGAGGTCTCCTTGC (antisense eT*e[5mC]*e[5mC]*eT*e[5mC]*dG*dA*dG*dA*dG*dG*dT*d[5mC]*dT*d[5mC]*e[5mC]*eT*eT*eG*e[5mC]) [ISIS 181071, 2′-MOE gapmer antisense oligonucleotide targeted to mouse RANK]”?
Answer: RANK mRNA % inhibition (normalized to PTH) Proximal Tibia ([1]; 30 mg/kg daily sc for 2 days): 34%; RANK mRNA % inhibition (normalized to PTH) Proximal Tibia ([1]; 30 mg/kg daily sc for 3 days): 14%; RANK mRNA % inhibition (normalized to PTH) Proximal Tibia ([1]; 30 mg/kg daily sc for 5 days): 32%; RANK mRNA % inhibition (normalized to PTH) Proximal Tibia ([1]; 30 mg/kg daily sc for 7 days): 61%; RANK mRNA % inhibition (normalized to PTH) Proximal Tibia ([1]; 30 mg/kg daily sc for 10 days): 37%; RANK mRNA % inhibition (normalized to PTH) Proximal Tibia ([1]; 30 mg/kg daily sc for 14 days): 53%; RANK mRNA % inhibition (normalized to PTH) Proximal Tibia ([1]; 30 mg/kg daily sc for 21 days): 52%; RANK mRNA expression in the proximal tibia ([1]; mice, 30 mg/kg daily s.c. for 2, 3, 5, 7, 10, 14, or 21 days, 24 hours PTH infusion): inhibition of RANK mRNA in the proximal tibia

B1: parathyroid hormone (peptide, UniProt P01270 32-115, looked up)
Parathyroid hormone: SVSEIQLMHNLGKHLNSMERVEWLRKKLQDVHNFVALGAPLAPRDAGSQRPRKKEDNVLVESHEKSLGEADKADVNVLTKAKSQ
notes: parathyroid hormone infused to induce bone resorption in the mouse model
Question: Which “RANKL mRNA % control” value ([2]; 0.5 hours, FuGENE 6 treatment) does the source give for B1 here?
Answer: 185 % control

Question: And the “RANKL mRNA % control” value ([2]; 0.5 hours, saline treatment)?
Answer: 168 % control

Question: And the “RANKL mRNA % control” value ([2]; 1 hour, FuGENE 6 treatment)?
Answer: 750 % control

Question: And the “RANKL mRNA % control” value ([2]; 1 hour, saline treatment)?
Answer: 700 % control

Question: And the “RANKL mRNA % control” value ([2]; 2 hours, FuGENE 6 treatment)?
Answer: 1275 % control

Question: What about the “RANKL mRNA % control” value ([2]; 2 hours, saline treatment) of the same molecule?
Answer: 908 % control

Question: And the “RANKL mRNA % control” value ([2]; 4 hours, FuGENE 6 treatment)?
Answer: 467 % control

Question: What about the “RANKL mRNA % control” value ([2]; 4 hours, saline treatment) of the same molecule?
Answer: 383 % control

Question: And the “RANKL mRNA % control” value ([2]; 6 hours, FuGENE 6 treatment)?
Answer: 340 % control

Question: What about the “RANKL mRNA % control” value ([2]; 6 hours, saline treatment) of the same molecule?
Answer: 326 % control

Question: And the “RANKL mRNA expression in response to PTH” value ([2]; primary mouse osteoblast cells, in the presence of saline or FuGENE 6)?
Answer: upregulated in response to PTH

Question: What about the “RANKL mRNA % control” value ([3]; 12 hours) of the same molecule?
Answer: 242 % control

Question: What about the “RANKL mRNA % control” value ([3]; 18 hours) of the same molecule?
Answer: 117 % control

Question: What about the “RANKL mRNA % control” value ([3]; 24 hours (4 ug/100 g)) of the same molecule?
Answer: 205 % control

Question: And the serum calcium [4]?
Answer: 20 mg/dL
